{"source": "the RNAGym collection of RNA variant scans (doi:10.1073/pnas.2313332121)", "parents": {"B1": {"name": "TPR t1 (parent)", "chain": "GACCAAUCUGCCCUCAGAGCUCGAGAACAUCUUCGGAUGCAGAGGAGGCAGGCUUCGGUGGCGCGAUAGCGCCAACGUCCUCAACCUCCAAUGCAUCCCACCACAUGAUGAUGCCUGAAGAGCCUUGGUUUUUUG"}}, "data": [{"variants_of": "B1", "assay": "polymerase ribozyme fitness, log enrichment relative to wild type (log ratio); higher = more active; in vitro selection for triplet polymerase activity", "in_short": "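Only genotypes with ≥10 input reads and ≥1 read per output were kept after Illumina sequencing of input and output libraries. These libraries were PCR-built, transcribed mutants of each subunit of a heterodimeric triplet polymerase ribozyme, each put through one triplicate in vitro selection round with frozen incubation at −7 °C, gel excision of extended constructs, streptavidin-bead capture and RT-PCR. Fitness is a logarithmic ratio of genotype enrichment to wild-type enrichment, from inverse-variance-weighted replicate averages, with the logarithm in base 2.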", "values": [{"variant": "C12G G44U G47C G58C U116A", "polymerase ribozyme fitness (log ratio)": -5.59}, {"variant": "C12U A24G G36A", "polymerase ribozyme fitness (log ratio)": -1.4}, {"variant": "C12U G35A", "polymerase ribozyme fitness (log ratio)": -3.06}, {"variant": "C12U A27G C28G G69U", "polymerase ribozyme fitness (log ratio)": -2.22}, {"variant": "C12G U96C", "polymerase ribozyme fitness (log ratio)": 0.043}, {"variant": "C12U A37C G113A C123G", "polymerase ribozyme fitness (log ratio)": 0.27}, {"variant": "C12U A43G C72U C123A", "polymerase ribozyme fitness (log ratio)": 0.368}, {"variant": "C12G C56G", "polymerase ribozyme fitness (log ratio)": -1.05}, {"variant": "C12U A16G C28U A46C G120C", "polymerase ribozyme fitness (log ratio)": -1.6}, {"variant": "C12U C56A G113A", "polymerase ribozyme fitness (log ratio)": -0.59}, {"variant": "C12G U55A C56G U81C", "polymerase ribozyme fitness (log ratio)": -1.29}, {"variant": "C12U C20A C56A U116G", "polymerase ribozyme fitness (log ratio)": -4.71}, {"variant": "C12G C22A", "polymerase ribozyme fitness (log ratio)": -4.18}, {"variant": "C12U C34U", "polymerase ribozyme fitness (log ratio)": -3.06}, {"variant": "C12G C22A C49A U55A C56U C62G G93U", "polymerase ribozyme fitness (log ratio)": -7.34}, {"variant": "C12U C40U C86U C94G U130A", "polymerase ribozyme fitness (log ratio)": -3.47}, {"variant": "C12U C97G C104U", "polymerase ribozyme fitness (log ratio)": -2.92}, {"variant": "C12U A27U C40A U78G U109A C123U U130C", "polymerase ribozyme fitness (log ratio)": -3.99}, {"variant": "C12G G69C C82U C98U A119G", "polymerase ribozyme fitness (log ratio)": -0.598}, {"variant": "C12U A27G G48C", "polymerase ribozyme fitness (log ratio)": -1.97}, {"variant": "C12U A121U", "polymerase ribozyme fitness (log ratio)": 2.4}, {"variant": "C12U A121G", "polymerase ribozyme fitness (log ratio)": 1.82}, {"variant": "C12U A41G G48A G57A C86U", "polymerase ribozyme fitness (log ratio)": -2.63}, {"variant": "C12U C56U G60U", "polymerase ribozyme fitness (log ratio)": -4.18}, {"variant": "C12G C62G C99G C124A", "polymerase ribozyme fitness (log ratio)": -7.37}, {"variant": "C12U C88A A95U C104A", "polymerase ribozyme fitness (log ratio)": -3.44}, {"variant": "C12U A26U C94U A118G", "polymerase ribozyme fitness (log ratio)": -2.71}, {"variant": "C12G C40U U55A C82G", "polymerase ribozyme fitness (log ratio)": -0.877}, {"variant": "C12G C20U A66U G69A", "polymerase ribozyme fitness (log ratio)": -5.04}, {"variant": "C12U C15U G17A A83C C85A G117U", "polymerase ribozyme fitness (log ratio)": -2.34}, {"variant": "C12U G36C A46U C72G U112C G127U", "polymerase ribozyme fitness (log ratio)": -1.47}, {"variant": "C12U A41U A46C G48A C72U C88A C102U C114G C115U", "polymerase ribozyme fitness (log ratio)": -8.1}, {"variant": "C12U C20G G63U U106C", "polymerase ribozyme fitness (log ratio)": -6.59}, {"variant": "C12U C20U U21A G25U A43U C56A C115A A121U U130A", "polymerase ribozyme fitness (log ratio)": -8.29}, {"variant": "C12U A74C C79U A121U", "polymerase ribozyme fitness (log ratio)": 1.34}, {"variant": "C12G C49A G77C", "polymerase ribozyme fitness (log ratio)": -0.254}, {"variant": "C12U A37C G45A G63U", "polymerase ribozyme fitness (log ratio)": -1.7}, {"variant": "C12G U109A", "polymerase ribozyme fitness (log ratio)": -4.88}, {"variant": "C12U A43C C72A A90U", "polymerase ribozyme fitness (log ratio)": -0.685}, {"variant": "C12U G23A", "polymerase ribozyme fitness (log ratio)": -3.55}, {"variant": "C12U C53U", "polymerase ribozyme fitness (log ratio)": 0.906}, {"variant": "C12G C76A A95U C115U", "polymerase ribozyme fitness (log ratio)": -4.26}, {"variant": "C12G G135U", "polymerase ribozyme fitness (log ratio)": -0.927}, {"variant": "C12G C40U G47C C79U C82G C123A U130C", "polymerase ribozyme fitness (log ratio)": -2.93}, {"variant": "C12G C22U G63A U87A", "polymerase ribozyme fitness (log ratio)": -4.98}, {"variant": "C12U C40U C104A", "polymerase ribozyme fitness (log ratio)": -2.12}, {"variant": "C12G G35U C70U A74C C123G", "polymerase ribozyme fitness (log ratio)": -5.14}, {"variant": "C12U C20U A43U C62U U96C U106A U129A", "polymerase ribozyme fitness (log ratio)": -6.14}, {"variant": "C12G C64U A75U U116G G122A C124G", "polymerase ribozyme fitness (log ratio)": 0.593}, {"variant": "C12G U87C", "polymerase ribozyme fitness (log ratio)": 0.621}, {"variant": "C12U C49U G63U", "polymerase ribozyme fitness (log ratio)": -1.49}, {"variant": "C12U C104G", "polymerase ribozyme fitness (log ratio)": -4.58}, {"variant": "C12U C70U C94U", "polymerase ribozyme fitness (log ratio)": 0.056}, {"variant": "C12U C86G", "polymerase ribozyme fitness (log ratio)": -0.52}, {"variant": "C12U A24G G36A G63A", "polymerase ribozyme fitness (log ratio)": -2.54}, {"variant": "C12U G36A", "polymerase ribozyme fitness (log ratio)": -0.19}, {"variant": "C12G G128A", "polymerase ribozyme fitness (log ratio)": -1.65}, {"variant": "C12U G36A C62G C73A", "polymerase ribozyme fitness (log ratio)": -6.24}, {"variant": "C12G C62G C115U", "polymerase ribozyme fitness (log ratio)": -3.7}, {"variant": "C12U C86A C98U", "polymerase ribozyme fitness (log ratio)": -0.708}, {"variant": "C12U C53U C98U U132A", "polymerase ribozyme fitness (log ratio)": -0.748}, {"variant": "C12U A37C A46U", "polymerase ribozyme fitness (log ratio)": -1.38}, {"variant": "C12U A18G G19C A37U A118U A121G", "polymerase ribozyme fitness (log ratio)": -1.65}, {"variant": "C12G U21G A111U", "polymerase ribozyme fitness (log ratio)": -3.89}, {"variant": "C12G U78C U125A", "polymerase ribozyme fitness (log ratio)": -0.607}, {"variant": "C12U A27C C49A G61A U106A C115U", "polymerase ribozyme fitness (log ratio)": -4.69}, {"variant": "C12U C20G A83C C98U A121U", "polymerase ribozyme fitness (log ratio)": -4.1}, {"variant": "C12G U21A C31U G60C U87C A95G G120U U133A", "polymerase ribozyme fitness (log ratio)": -4.31}, {"variant": "C12U C72G A103G C124A", "polymerase ribozyme fitness (log ratio)": -5.75}, {"variant": "C12G U30C C70A", "polymerase ribozyme fitness (log ratio)": -4.46}, {"variant": "C12G G51U", "polymerase ribozyme fitness (log ratio)": -2.93}, {"variant": "C12U A66U U78A U87C", "polymerase ribozyme fitness (log ratio)": -0.338}, {"variant": "C12U C72U A83U C99U", "polymerase ribozyme fitness (log ratio)": -3.62}, {"variant": "C12U C70G", "polymerase ribozyme fitness (log ratio)": -2.05}, {"variant": "C12U C70U", "polymerase ribozyme fitness (log ratio)": 0.3}, {"variant": "C12U C70A", "polymerase ribozyme fitness (log ratio)": -0.649}, {"variant": "C12U C34A U106A U112C G120C C124G G128A", "polymerase ribozyme fitness (log ratio)": -5.07}, {"variant": "C12U C56A A91U A121C", "polymerase ribozyme fitness (log ratio)": -0.738}, {"variant": "C12G G19C G57A A119G U131A", "polymerase ribozyme fitness (log ratio)": -3.15}, {"variant": "C12U A29G G45U C56U C89A A91U G110A G127U", "polymerase ribozyme fitness (log ratio)": -5.23}, {"variant": "C12U C70U C76G U132C", "polymerase ribozyme fitness (log ratio)": -0.684}, {"variant": "C12U C56U G58A G71U U112C G122A", "polymerase ribozyme fitness (log ratio)": 0.796}, {"variant": "C12G G23A G71C C123G U129A", "polymerase ribozyme fitness (log ratio)": -7.78}]}]}
